This is an account of results in the supplement of paper PMC9112550, “Optimization of the antimicrobial peptide Bac7 by deep mutational scanning” (BMC Biology, 2022).

In this series the test system is Escherichia coli TOP10. The series can be described thus: shrunken log2 fold change of peptide-encoding DNA abundance (4.5 h post-induction vs induction); higher = less antimicrobial activity (less host growth inhibition). The note with it: time post-induction: 4.5 h; library: site-saturation at positions 5, 18, 19, 20.
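Also: peptides expressed intracellularly from a pBAD plasmid library in pooled LB shake-flask culture, induced with 0.3% L-arabinose, DNA abundance read by NGS, three biological replicates, DESeq2 with apeglm shrinkage.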

Consider RRIRIRPPRLPRPRPRPHFWPRP, for which the “shrunken log2 fold change” value is 0.0146.

For the sequence RRIRWRPPRLPRPRPRPRQPPRP, the “shrunken log2 fold change” value was 0.743.

RRIRHRPPRLPRPRPRPMESPRP: the “shrunken log2 fold change” value is 0.00489.

Consider RRIRFRPPRLPRPRPRPIEAPRP, for which the “shrunken log2 fold change” value was -0.181.

Regarding RRIRMRPPRLPRPRPRPDLQPRP, the “shrunken log2 fold change” value was 0.461.

Take RRIRFRPPRLPRPRPRPKEVPRP: the “shrunken log2 fold change” value is 0.0322.

For RRIRNRPPRLPRPRPRPQWQPRP, the “shrunken log2 fold change” value was -0.0605.

In the case of RRIRERPPRLPRPRPRPHFHPRP, the “shrunken log2 fold change” value is -0.597.

RRIRWRPPRLPRPRPRPAVMPRP: the “shrunken log2 fold change” value was 0.0971.

Regarding RRIRFRPPRLPRPRPRPQRNPRP, the “shrunken log2 fold change” value is -0.323.

In the case of RRIRCRPPRLPRPRPRPTKPPRP, the “shrunken log2 fold change” value is 0.531.

Turning to RRIRWRPPRLPRPRPRPENWPRP, the “shrunken log2 fold change” value amounted to 0.254.

For the sequence RRIRVRPPRLPRPRPRPEVPPRP, the “shrunken log2 fold change” value is 0.326.

RRIRKRPPRLPRPRPRPTTFPRP: the “shrunken log2 fold change” value was 0.18.

For the sequence RRIRIRPPRLPRPRPRPHTQPRP, the “shrunken log2 fold change” value is -0.124.

Regarding RRIRERPPRLPRPRPRPCFDPRP, the “shrunken log2 fold change” value was -0.144.

For RRIRIRPPRLPRPRPRPKAPPRP, the “shrunken log2 fold change” value is -0.0151.

For the sequence RRIRFRPPRLPRPRPRPRAIPRP, the “shrunken log2 fold change” value amounted to 0.0543.

In the case of RRIRMRPPRLPRPRPRPNRLPRP, the “shrunken log2 fold change” value was 0.0386.

For RRIRSRPPRLPRPRPRPGIQPRP, the “shrunken log2 fold change” value is 0.0642.

Turning to RRIRCRPPRLPRPRPRPTASPRP, the “shrunken log2 fold change” value turned out to be 0.266.

On to RRIRIRPPRLPRPRPRPSYIPRP, for which the “shrunken log2 fold change” value is -1.04.

For the sequence RRIRIRPPRLPRPRPRPALGPRP, the “shrunken log2 fold change” value is 0.0956.

With RRIRRRPPRLPRPRPRPNPEPRP, the “shrunken log2 fold change” value is 0.302.

Turning to RRIRIRPPRLPRPRPRPRLWPRP, the “shrunken log2 fold change” value came out at 0.0665.

On to RRIRYRPPRLPRPRPRPKHHPRP, for which the “shrunken log2 fold change” value was -0.986.

For RRIRHRPPRLPRPRPRPVCFPRP, the “shrunken log2 fold change” value is -0.0341.

Turning to RRIRNRPPRLPRPRPRPHQRPRP, the “shrunken log2 fold change” value came out at 0.244.

As for RRIRFRPPRLPRPRPRPRMDPRP, the “shrunken log2 fold change” value is -0.0641.

For RRIRVRPPRLPRPRPRPYLAPRP, the “shrunken log2 fold change” value was -0.413.

Regarding RRIRHRPPRLPRPRPRPRHEPRP, the “shrunken log2 fold change” value came out at 0.099.

On to RRIRERPPRLPRPRPRPHYIPRP, for which the “shrunken log2 fold change” value is -0.133.

Take RRIRCRPPRLPRPRPRPFMDPRP: the “shrunken log2 fold change” value was -0.361.

Take RRIRPRPPRLPRPRPRPYNSPRP: the “shrunken log2 fold change” value is -0.55.

Regarding RRIRARPPRLPRPRPRPDTFPRP, the “shrunken log2 fold change” value was found to be 0.158.

With RRIRERPPRLPRPRPRPDNLPRP, the “shrunken log2 fold change” value was -0.00994.

Consider RRIRWRPPRLPRPRPRPWRLPRP, for which the “shrunken log2 fold change” value was -0.172.

For RRIRERPPRLPRPRPRPGTQPRP, the “shrunken log2 fold change” value is -0.0335.

On to RRIRQRPPRLPRPRPRPVIAPRP, for which the “shrunken log2 fold change” value stood at 0.248.

On to RRIRPRPPRLPRPRPRPYAGPRP, for which the “shrunken log2 fold change” value is -0.00254.

Turning to RRIRFRPPRLPRPRPRPCAPPRP, the “shrunken log2 fold change” value was -0.121.

Take RRIRVRPPRLPRPRPRPQDFPRP: the “shrunken log2 fold change” value is 0.00129.

RRIRMRPPRLPRPRPRPVGCPRP: the “shrunken log2 fold change” value was 0.972.

As to RRIRMRPPRLPRPRPRPKYQPRP, the “shrunken log2 fold change” value is 0.0592.

Consider RRIRERPPRLPRPRPRPCIQPRP, for which the “shrunken log2 fold change” value was -1.15.

On to RRIRKRPPRLPRPRPRPWVHPRP, for which the “shrunken log2 fold change” value is -0.0825.

As for RRIRIRPPRLPRPRPRPCFVPRP, the “shrunken log2 fold change” value was -0.422.

Regarding RRIRVRPPRLPRPRPRPDCDPRP, the “shrunken log2 fold change” value was -0.102.

For the sequence RRIRKRPPRLPRPRPRPTWEPRP, the “shrunken log2 fold change” value was -0.0667.

In the case of RRIRWRPPRLPRPRPRPLGTPRP, the “shrunken log2 fold change” value was determined as 0.0928.

For RRIRERPPRLPRPRPRPYCTPRP, the “shrunken log2 fold change” value was -1.13.

Turning to RRIRNRPPRLPRPRPRPMCGPRP, the “shrunken log2 fold change” value was -0.301.

RRIRKRPPRLPRPRPRPPQKPRP: the “shrunken log2 fold change” value is 0.682.

Turning to RRIRVRPPRLPRPRPRPEMFPRP, the “shrunken log2 fold change” value is -0.0822.

RRIRSRPPRLPRPRPRPKNQPRP: the “shrunken log2 fold change” value is -0.177.

Regarding RRIRSRPPRLPRPRPRPDRWPRP, the “shrunken log2 fold change” value is 0.0855.

On to RRIRPRPPRLPRPRPRPHFQPRP, for which the “shrunken log2 fold change” value is 0.0551.

For RRIRERPPRLPRPRPRPRLQPRP, the “shrunken log2 fold change” value is 0.0143.

For the sequence RRIRGRPPRLPRPRPRPTPEPRP, the “shrunken log2 fold change” value amounted to 0.917.

Regarding RRIRLRPPRLPRPRPRPTTVPRP, the “shrunken log2 fold change” value is -0.175.

For RRIRKRPPRLPRPRPRPLDAPRP, the “shrunken log2 fold change” value was 0.748.

As to RRIRCRPPRLPRPRPRPPTQPRP, the “shrunken log2 fold change” value was 0.515.

RRIRIRPPRLPRPRPRPYIHPRP: the “shrunken log2 fold change” value was -1.3.

Turning to RRIRIRPPRLPRPRPRPGVCPRP, the “shrunken log2 fold change” value turned out to be 0.0702.

Regarding RRIRERPPRLPRPRPRPACAPRP, the “shrunken log2 fold change” value is 0.455.

On to RRIRFRPPRLPRPRPRPERRPRP, for which the “shrunken log2 fold change” value was determined as 0.166.

Take RRIRRRPPRLPRPRPRPNSLPRP: the “shrunken log2 fold change” value is -0.652.

Regarding RRIRTRPPRLPRPRPRPIAAPRP, the “shrunken log2 fold change” value was determined as 0.894.

For the sequence RRIRFRPPRLPRPRPRPHRVPRP, the “shrunken log2 fold change” value was -0.137.

Take RRIRVRPPRLPRPRPRPIAHPRP: the “shrunken log2 fold change” value is -0.126.

Turning to RRIRKRPPRLPRPRPRPIDKPRP, the “shrunken log2 fold change” value was found to be 0.0797.

On to RRIRARPPRLPRPRPRPGATPRP, for which the “shrunken log2 fold change” value worked out at 0.959.

Turning to RRIRDRPPRLPRPRPRPAIRPRP, the “shrunken log2 fold change” value was found to be 0.53.

Take RRIRWRPPRLPRPRPRPNSNPRP: the “shrunken log2 fold change” value is -0.583.

For the sequence RRIRTRPPRLPRPRPRPIVFPRP, the “shrunken log2 fold change” value is -0.218.

In the case of RRIRGRPPRLPRPRPRPIIRPRP, the “shrunken log2 fold change” value is 0.07.

Turning to RRIRRRPPRLPRPRPRPDEKPRP, the “shrunken log2 fold change” value was 0.135.

Consider RRIRCRPPRLPRPRPRPYGTPRP, for which the “shrunken log2 fold change” value was found to be 0.016.

Regarding RRIRIRPPRLPRPRPRPYYCPRP, the “shrunken log2 fold change” value is -0.529.

For RRIRKRPPRLPRPRPRPKHPPRP, the “shrunken log2 fold change” value amounted to 0.068.

For RRIRWRPPRLPRPRPRPWMYPRP, the “shrunken log2 fold change” value is -0.02.

On to RRIRDRPPRLPRPRPRPWFSPRP, for which the “shrunken log2 fold change” value was -0.317.

As for RRIRCRPPRLPRPRPRPYKFPRP, the “shrunken log2 fold change” value was -0.279.

RRIRVRPPRLPRPRPRPICIPRP: the “shrunken log2 fold change” value was -0.449.

As for RRIRVRPPRLPRPRPRPRAIPRP, the “shrunken log2 fold change” value came out at 1.97.

Take RRIRPRPPRLPRPRPRPRSGPRP: the “shrunken log2 fold change” value was found to be 0.0638.

As to RRIRTRPPRLPRPRPRPIDEPRP, the “shrunken log2 fold change” value came out at 0.0904.

As to RRIRCRPPRLPRPRPRPKECPRP, the “shrunken log2 fold change” value was 0.103.

For the sequence RRIRTRPPRLPRPRPRPLQKPRP, the “shrunken log2 fold change” value is -0.134.

Consider RRIRWRPPRLPRPRPRPWNMPRP, for which the “shrunken log2 fold change” value was -0.101.

As for RRIRNRPPRLPRPRPRPPQPPRP, the “shrunken log2 fold change” value was determined as 0.621.

In the case of RRIRFRPPRLPRPRPRPDGNPRP, the “shrunken log2 fold change” value is -0.174.

Take RRIRYRPPRLPRPRPRPQHGPRP: the “shrunken log2 fold change” value was -0.0664.

As to RRIRNRPPRLPRPRPRPYVPPRP, the “shrunken log2 fold change” value was -0.0142.

As to RRIRARPPRLPRPRPRPRRAPRP, the “shrunken log2 fold change” value stood at 0.831.

Consider RRIRLRPPRLPRPRPRPVYAPRP, for which the “shrunken log2 fold change” value turned out to be 0.00563.

In the case of RRIRSRPPRLPRPRPRPNWIPRP, the “shrunken log2 fold change” value was -0.659.

Take RRIRSRPPRLPRPRPRPPYDPRP: the “shrunken log2 fold change” value is -0.397.

RRIRNRPPRLPRPRPRPSLFPRP: the “shrunken log2 fold change” value was -0.453.

Consider RRIRTRPPRLPRPRPRPSFQPRP, for which the “shrunken log2 fold change” value is -0.427.

With RRIRERPPRLPRPRPRPHTWPRP, the “shrunken log2 fold change” value is -0.33.

Regarding RRIRERPPRLPRPRPRPQKQPRP, the “shrunken log2 fold change” value was -0.0621.

For RRIRCRPPRLPRPRPRPHECPRP, the “shrunken log2 fold change” value is -0.3.

As to RRIRFRPPRLPRPRPRPDTPPRP, the “shrunken log2 fold change” value was 1.5.

Consider RRIRGRPPRLPRPRPRPSIIPRP, for which the “shrunken log2 fold change” value amounted to 0.211.

As to RRIRQRPPRLPRPRPRPEAKPRP, the “shrunken log2 fold change” value worked out at 0.0428.

Regarding RRIRQRPPRLPRPRPRPMCGPRP, the “shrunken log2 fold change” value stood at 0.31.

For RRIRHRPPRLPRPRPRPEHMPRP, the “shrunken log2 fold change” value was -0.177.

For the sequence RRIRTRPPRLPRPRPRPSCRPRP, the “shrunken log2 fold change” value is -0.219.

Turning to RRIRIRPPRLPRPRPRPSECPRP, the “shrunken log2 fold change” value is -0.00498.

As to RRIRIRPPRLPRPRPRPSWVPRP, the “shrunken log2 fold change” value is -0.168.

On to RRIRTRPPRLPRPRPRPIDCPRP, for which the “shrunken log2 fold change” value was 0.0429.

Take RRIRGRPPRLPRPRPRPGHWPRP: the “shrunken log2 fold change” value worked out at 0.387.

Consider RRIRKRPPRLPRPRPRPKTNPRP, for which the “shrunken log2 fold change” value was determined as 0.485.

Consider RRIRQRPPRLPRPRPRPPQTPRP, for which the “shrunken log2 fold change” value came out at 0.33.

In the case of RRIRDRPPRLPRPRPRPPVGPRP, the “shrunken log2 fold change” value came to 0.348.

As to RRIRIRPPRLPRPRPRPPCWPRP, the “shrunken log2 fold change” value is 0.836.

For the sequence RRIRIRPPRLPRPRPRPWFCPRP, the “shrunken log2 fold change” value was -0.322.

For the sequence RRIRHRPPRLPRPRPRPPEDPRP, the “shrunken log2 fold change” value was found to be 0.314.

Take RRIRHRPPRLPRPRPRPQAHPRP: the “shrunken log2 fold change” value was -0.0538.

As to RRIRHRPPRLPRPRPRPQCHPRP, the “shrunken log2 fold change” value is -0.202.

As for RRIRVRPPRLPRPRPRPFMKPRP, the “shrunken log2 fold change” value was -0.737.

Turning to RRIRDRPPRLPRPRPRPLDGPRP, the “shrunken log2 fold change” value is 0.0131.

With RRIRKRPPRLPRPRPRPMSKPRP, the “shrunken log2 fold change” value was found to be 0.388.

Take RRIRFRPPRLPRPRPRPKKLPRP: the “shrunken log2 fold change” value stood at 0.173.
